# Measurements published in the supplement of paper PMC11908140.
# B1: library; numbered along this chain (parent)
# chain: MRKPRAAVGSGHRKQAASQEGRQKHAKNNSQAKPSACDGLARQPEEVVLQASVSSYHLFRDVAEVTAFRGSLLSWYDQEKRDLPWRRRAEDEMDLDRRAYAVWVSEVMLQQTQVATVINYYTGWMQKWPTLQDLASASLEEVNQLWAGLGYYSRGRRLQEGARKVVEELGGHMPRTAETLQQLLPGVGRYTAGAIASIAFGQATGVVDGNVARVLCRVRAIGADPSSTLVSQQLWGLAQQLVDPARPGDFNQAAMELGATVCTPQRPLCSQCPVESLCRARQRVEQEQLLASGSLSGSPDVEECAPNTGQCHLCLPPSEPWDQTLGVVNFPRKASRKPPREESSATCVLEQPGALGAQILLVQRPNSGLLAGLWEFPSVTWEPSEQLQRKALLQELQRWAGPLPATHLRHLGEVVHTFSHIKLTYQVYGLALEGQTPVTTVPPGARWLTQEEFHTAAVSTAMKKVFRVYQGQQPGTCMGSKRSQVSSPCSRKKPRMGQQVLDNFFRSHISTDAHSLNSAAQ
# Variants of: B1
# Assay: 8OG:A repair function score (normalized; synonymous = 0, nonsense = -1) (normalized log-likelihood score); higher = more repair activity (WT-like)
# Details: with 8OG:A DNA repair reporter (GFP) in HEK-293 MUTYH KO cells
# Summary of the method: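 GFP+ (repair) and GFP− bins of viable mCherry+ cells were collected at 72 h from MUTYH knockout HEK-293 cells bearing lentiviral MUTYH cDNA NNN codon-scan libraries in 10 pg/ml doxycycline, co-transfected with an 8OG:A GFP repair reporter and mCherry. Tile amplicons were sequenced, and per-tile Rosace fitness scores were normalized to a repair function score anchored on synonymous and nonsense distributions. Synonymous medians were set to 0 and nonsense to -1, with variants under 300 counts per million at the start removed.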
# 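Note: cells sorted at 72 h after reporter transfection.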
row,Variant,8OG:A repair function score
1,MRKPRAAVGSGHRKQAASQEGRQKHAKNNSQAKPSACDGLARQPEEVVLQASVSSYHLFRDVAEVTAFRGSLLSWYDQEKRDLPWRRRAEDEMDLDRRAYAVWVSEVMLQQTQVATVINYYTGWMQKWPTLQDLASASLEEVNQLWAGLGYYSRGRRLQEGARKVVEELGGHMPRTAETLQQLLPGVGRYTAGAIASIAFGQATGVVDGNVARVLCRVRAIGADPSSTLVSQQLWGLAQQLVDPARPGDFNQAAMELGATVCTPQRPLCSQCPVESLCRARQRVEQEQLLASGSLSGSPDVEECAPNTGQCHLCLPPSEVWDQTLGVVNFPRKASRKPPREESSATCVLEQPGALGAQILLVQRPNSGLLAGLWEFPSVTWEPSEQLQRKALLQELQRWAGPLPATHLRHLGEVVHTFSHIKLTYQVYGLALEGQTPVTTVPPGARWLTQEEFHTAAVSTAMKKVFRVYQGQQPGTCMGSKRSQVSSPCSRKKPRMGQQVLDNFFRSHISTDAHSLNSAAQ [P320V],-0.0867
2,MRKPRAAVGSGHRKQAASQEGRQKHAKNNSQAKPSACDGLARQPEEVVLQASVSSYHLFRDVAEVTAFRGSLLSWYDQEKRDLPWRRRAEDEMDLDRRAYAVWVSEVMLQQTQVATVINYYTGWMQKWPTLQDLASASLEEVNQLWAGLGYYSRGRRLQEGARKVVEELGGHMPRTAETLQQLLPGVGRYTAGAIASIAFGQATGVVDGNVARVLCRVRAIGADPSSTLVSQQLWGLAQQLVDPARPGDFNQAAMELGATVCTPQRPLCSQCPVESLCRARQRVEQEQLLASGSLSGSPDVEECAPNTGQCHLCLPPSEPWDQTLGVVNFPRKASRKPPREESSATCVLEQPGALGAQILLVQRPNSGNLAGLWEFPSVTWEPSEQLQRKALLQELQRWAGPLPATHLRHLGEVVHTFSHIKLTYQVYGLALEGQTPVTTVPPGARWLTQEEFHTAAVSTAMKKVFRVYQGQQPGTCMGSKRSQVSSPCSRKKPRMGQQVLDNFFRSHISTDAHSLNSAAQ [L369N],0.0162
3,MRKPRAAVGSGHRKQAASQEGRQKHAKNNSQAKPSACDGLARQPEEVVLQASVSSYHLFRDVAEVTAFRGSLLSWYDQEKRDLPWRRRAEDEMDLDRRAYAVWVSEVMLQQTQVATVINYYTGWMQKWPTLQDLASASLEEVNQLWAGLGYYSRGRRLQEGARKVVEELGGHMPRTAETLQQLLPGVGRYTAGAIASIAFGQATGVVDGNVARVLCRVRAIGADPSSTLVSQQLWGLAQQLVDPARPGDFNQAAMELGATVCTPQRPLCSQCPVESLCRARQRVEQEQLLASGSLSGSPDVEECAPNTGQCHLCLPPSEPWDQTLGVVNFPRKASRKPPREESSATCVLEQPGALGAQILLVQRPNSGLLAGNWEFPSVTWEPSEQLQRKALLQELQRWAGPLPATHLRHLGEVVHTFSHIKLTYQVYGLALEGQTPVTTVPPGARWLTQEEFHTAAVSTAMKKVFRVYQGQQPGTCMGSKRSQVSSPCSRKKPRMGQQVLDNFFRSHISTDAHSLNSAAQ [L373N],-0.777
4,MRKPRAAVGSGHRKQAASQEGRQKHAKNNSQAKPSACDGLARQPEEVVLQASVSSYHLFRDVAEVTAFRGSLLSWYDQEKRDLPWRRRAEDEMDLDRRAYAVWVSEVMLQQTQVATVINYYTGWMQKWPTLQDLASASLEEVNQLWAGLGYYSRGRRLQEGARKVVEELGGHMPRTAETLQQLLPGVGRYTAGAIASIAFGQATGVVDGNVARVLCRVRAIGADPSSTLVSQQLWGLAQQLVDPARPGDFNQAAMELGATVCTPQRPLCSQCPVESLCRARFRVEQEQLLASGSLSGSPDVEECAPNTGQCHLCLPPSEPWDQTLGVVNFPRKASRKPPREESSATCVLEQPGALGAQILLVQRPNSGLLAGLWEFPSVTWEPSEQLQRKALLQELQRWAGPLPATHLRHLGEVVHTFSHIKLTYQVYGLALEGQTPVTTVPPGARWLTQEEFHTAAVSTAMKKVFRVYQGQQPGTCMGSKRSQVSSPCSRKKPRMGQQVLDNFFRSHISTDAHSLNSAAQ [Q282F],-0.021
5,MRKPRAAVGSGHRKQAASQEGRQKHAKNNSQAKPSACDGLARQPEEVVLQASVSSYHLFRDVAEVTTFRGSLLSWYDQEKRDLPWRRRAEDEMDLDRRAYAVWVSEVMLQQTQVATVINYYTGWMQKWPTLQDLASASLEEVNQLWAGLGYYSRGRRLQEGARKVVEELGGHMPRTAETLQQLLPGVGRYTAGAIASIAFGQATGVVDGNVARVLCRVRAIGADPSSTLVSQQLWGLAQQLVDPARPGDFNQAAMELGATVCTPQRPLCSQCPVESLCRARQRVEQEQLLASGSLSGSPDVEECAPNTGQCHLCLPPSEPWDQTLGVVNFPRKASRKPPREESSATCVLEQPGALGAQILLVQRPNSGLLAGLWEFPSVTWEPSEQLQRKALLQELQRWAGPLPATHLRHLGEVVHTFSHIKLTYQVYGLALEGQTPVTTVPPGARWLTQEEFHTAAVSTAMKKVFRVYQGQQPGTCMGSKRSQVSSPCSRKKPRMGQQVLDNFFRSHISTDAHSLNSAAQ [A67T],0.00198
6,MRKPRAAVGSGHRKQAASQEGRQKHAKNNSQAKPSACDGLARQPEEVVLQASVSSYHLFRDVAEVTAFRGSLLSWYDQEKRDLPWRRRAEDEMDLDRRAYAVWVSEVMLQQTQVATVINYYTGWMQKWPTLQDLASASLEEVNQLWAGLGYYSRGRRLQEGARKVVEELGGHMPRTAETLQQLLPGVGRYTAGAIASIAFGQATGVVDGNVARVLCRVRAIGADPSSTLVSQQLWGLAQQLVDPARPGDFNQAAMELGATVCTPQRPLCSQCPVESLCRARQRVEQEQLLASGSLSGSPDVEECAPNTGQCHLCLPPSEPWDQTLGVVNFPRKASRKPPREESSATCVLEQPGALGAQILLVQRPNSGLLAGLWEFPSVTWEPSEQLQRKALLQELQRWAGPLPATHLRHLGEVVHTFSHIKLTYQVYGLALEGQTPVTTVPPGARWLTNEEFHTAAVSTAMKKVFRVYQGQQPGTCMGSKRSQVSSPCSRKKPRMGQQVLDNFFRSHISTDAHSLNSAAQ [Q450N],0.172
